Experimental data reported in publication PMC11415397, “The Alpha-Synuclein Gene (SNCA) is a Genomic Target of Methyl-CpG Binding Protein 2 (MeCP2)—Implications for Parkinson’s Disease and Rett Syndrome”.

What was measured:
MeCP2 R255X [1] = target: T1, MeCP2 R255X (UniProt P51608 1-254); test: EMSA; strongest shift, already at 30 nM; 10 mM Tris pH 7.5, 1 mM EDTA, 100 mM KCl, 100 uM DTT, 5% glycerol, 10 ug/ml BSA, 30 min room temperature; 50 fmol probe in 5 ul; MeCP2 30-75 (nmol in Methods and legend, nM in Results); conditions: protein: recombinant; tags: His; label: IRDye700 at 5' of LUEGO (S27); three strands: S27 and S25 lie side by side (nick) on S26; blunt
MeCP2 wild type = MeCP2 wild type (UniProt P51608 1-486); test: EMSA; shift from 30 nM; 10 mM Tris pH 7.5, 1 mM EDTA, 100 mM KCl, 100 uM DTT, 5% glycerol, 10 ug/ml BSA, 30 min room temperature; 50 fmol probe in 5 ul; MeCP2 30-75 (nmol in Methods and legend, nM in Results); conditions: protein: recombinant; tags: His; label: IRDye700 at 5' of LUEGO (S27); three strands: S27 and S23 lie side by side (nick) on S24; blunt
MeCP2 R255X [2] = target: T1, MeCP2 R255X; test: as above; conditions: protein: recombinant; tags: His; label: IRDye700 at 5' of LUEGO (S27); three strands: S27 and S23 lie side by side (nick) on S24; blunt

B1: SNCA intron 1 CpG2 probe, methylated (dsDNA)
DNA 1: GTGCCCTGGTCTGG
DNA 2: GCTGAGAGATTAGGCTGCTTCTCCGGGATCCGC
DNA 3: GCGGATCCCGGAGAAGCAGCCTAATCTCTCAGCCCAGACCAGGGCAC
modifications: CpG 5mC, in vitro methylated (enzyme for the probe not stated in EMSA section)
MeCP2 R255X [1]
  binding result: binds

B2: SNCA intron 1 CpG1 probe, methylated (dsDNA)
DNA 1: GTGCCCTGGTCTGG
DNA 2: CTGGCTTTCGTCCTGCTTCTGATATTCCCTTCTC
DNA 3: GAGAAGGGAATATCAGAAGCAGGACGAAAGCCAGCCAGACCAGGGCAC
modifications: CpG 5mC, in vitro methylated (enzyme for the probe not stated in EMSA section)
MeCP2 wild type
  binding result: binds
MeCP2 R255X [2]
  binding result: binds
